Source: paper doi:10.1101/385401 (bioRxiv, 2018)
Changes are numbered by the printed parent chain. Numbers in names are those of the source. Read-outs that look alike come from different tables or passages of the source.

Key:
[1] = target: the molecule itself; test: crystal structure
[2] = target: the molecule itself

B1: Escherichia coli (Ec) dGTPase, wild type (enzyme, UniProt P15723 1-505, looked up)
chain: MAQIDFRKKINWHRRYRSPQGVKTEHEILRIFESDRGRIINSPAIRRLQQKTQVFPLERNAAVRTRLTHSMEVQQVGRYIAKEILSRLKELKLLEAYGLDELTGPFESIVEMSCLMHDIGNPPFGHFGEAAINDWFRQRLHPEDAESQPLTDDRCSVAALRLRDGEEPLNELRRKIRQDLCHFEGNAQGIRLVHTLMRMNLTWAQVGGILKYTRPAWWRGETPETHHYLMKKPGYYLSEEAYIARLRKELNLALYSRFPLTWIMEAADDISYCVADLEDAVEKRIFTVEQLYHHLHEAWGQHEKGSLFSLVVENAWEKSRSNSLSRSTEDQFFMYLRVNTLNKLVPYAAQRFIDNLPAIFAGTFNHALLEDASECSDLLKLYKNVAVKHVFSHPDVERLELQGYRVISGLLEIYRPLLSLSLSDFTELVEKERVKRFPIESRLFHKLSTRHRLAYVEAVSKLPSDSPEFPLWEYYYRCRLLQDYISGMTDLYAWDEYRRLMAVEQ
stoichiometry N [1]: 6

B2: Ec-dGTPase E129A variant (enzyme, Escherichia coli, UniProt P15723 1-505, looked up)
chain: B1 chain with E129A
stoichiometry N [2]: 6

B3: Ec-dGTPase H126A variant (enzyme, Escherichia coli, UniProt P15723 1-505, looked up)
chain: B1 chain with H126A
stoichiometry N [2]: 6

B4: Ec-dGTPase Y272A variant (enzyme, Escherichia coli, UniProt P15723 1-505, looked up)
chain: B1 chain with Y272A
stoichiometry N [2]: 6

B5: selenium methionine labelled Ec-dGTPase (enzyme, Escherichia coli, UniProt P15723 1-505, looked up)
chain: B1 chain
modifications: selenium methionine labelled
stoichiometry N [1]: 6
